The supplement of paper PMC10126150
± gives the standard deviation of the averaged measurements.

System: ATP
Test: switch fluorescence ratio, 500 uM ATP over buffer (Cy3 cluster intensity, sum of 5 cycles each) (fold (ratio)); higher = stronger signal-on switching upon ATP binding; sequences stand for … in TCGTCGGCAGCGTCAGATGTGTATAAGAGACAGTTTTTTTTTTTTTTTTTTTTTTTTT…TC
Conditions: aptamer strand: ATP DNA aptamer (quencher-CACCTGGGGGAGTATTGCGGAGGAAGG + anchor), 100 nM annealed; ATP concentration: 500 uM
Method in brief: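 The fluorescence ratio divides summed target-cycle Cy3 intensity by summed buffer-cycle Cy3 intensity for each cluster and is averaged per switch-domain sequence. Cy3-labelled switching-strand clusters on a modified Illumina MiSeq flow-cell were annealed to 100 nM quencher-labelled ATP aptamer, then imaged in selection buffer and again after 15 min with 500 uM ATP at 22 °C. Five such cycles were run, with NaOH stripping and re-annealing between them, and clusters outside 100-1000 RFU were excluded.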
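Also: ATP exposure 15 min at 22 °C before imaging.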

Sequence | switch fluorescence ratio
AGTGCTGTGC | 0.997 ± 0.012
AGTGCTTTTG | 0.978 ± 0.018
AGTGCTTTTT | 1.01 ± 0.012
AGTGGAATGC | 1.12 ± 0.032
AGTGGAATTC | 1.04 ± 0.012
AGTGGACGGG | 0.994 ± 0.023
AGTGGCATGC | 0.985 ± 0.023
AGTGGGAAGG | 0.956 ± 0.021
AGTGGGAATG | 0.9595 ± 0.0078
AGTGGGACGC | 1 ± 0.044
AGTGGGAGGG | 1 ± 0.02
AGTGGGAGTT | 1.002 ± 0.0081
AGTGGGGCCA | 1.03 ± 0.044
AGTGGGGGGA | 1.02 ± 0.028
AGTGGGGTG | 1.03 ± 0.026
AGTGGGGTGG | 0.982 ± 0.043
AGTGGGTAAG | 0.9869 ± 0.0085
AGTGGGTTGG | 0.99 ± 0.014
AGTGGTATGA | 1.01 ± 0.048
AGTGGTGAGG | 0.983 ± 0.016
AGTGGTTTTT | 0.9946 ± 0.0055
AGTGTACGGG | 1.083 ± 0.0077
AGTGTACTCG | 1.04 ± 0.056

Sequence | switch fluorescence ratio
AGTGTAGGGG | 1.02 ± 0.028
AGTGTATACT | 0.9886 ± 0.0021
AGTGTGAGCT | 1 ± 0.037
AGTGTGGGCT | 1.04 ± 0.021
AGTGTGGGGC | 1.03 ± 0.0097
AGTGTGGTTA | 1.005 ± 0.01
AGTGTGTGGC | 1.01 ± 0.016
AGTGTTAGGA | 1.02 ± 0.011
AGTGTTGTAT | 1.05 ± 0.044
AGTGTTTGTT | 0.9995 ± 0.0052
AGTTAAAAAT | 0.996 ± 0.022
AGTTAAAATA | 1 ± 0.021
AGTTAAATTT | 0.994 ± 0.035
AGTTAATAAA | 1 ± 0.0019
AGTTACCCGA | 1.04 ± 0.011
AGTTACGGAC | 1.36 ± 0.017
AGTTACGGGA | 1.1 ± 0.03
AGTTAGACAG | 0.9737 ± 0.0062
AGTTAGCAAT | 2.45 ± 0.11
AGTTAGGGCG | 1.04 ± 0.058
AGTTAGGTGT | 1.04 ± 0.044
AGTTAGTAAG | 1.01 ± 0.04
AGTTAGTTAG | 0.987 ± 0.011

Sequence | switch fluorescence ratio
AGTTATGTAG | 1.01 ± 0.052
AGTTATGTTT | 0.956 ± 0.051
AGTTCAACCT | 1.65 ± 0.19
AGTTCAGAAC | 0.9899 ± 0.0075
AGTTCGGGCA | 0.998 ± 0.021
AGTTCTAGGA | 0.953 ± 0.03
AGTTCTCAGT | 0.997 ± 0.018
AGTTCTGGTT | 0.965 ± 0.011
AGTTCTGTCG | 1.01 ± 0.09
AGTTCTTGGC | 1.02 ± 0.0042
AGTTGCACGT | 0.954 ± 0.041
AGTTGCGTAG | 0.989 ± 0.021
AGTTGCGTTA | 0.963 ± 0.025
AGTTGGCGGG | 1.018 ± 0.005
AGTTGGCTTA | 1.01 ± 0.013
AGTTGGGCAT | 0.995 ± 0.017
AGTTGGGGGA | 0.984 ± 0.014
AGTTGGTCTC | 1.13 ± 0.12
AGTTGTATT | 0.967 ± 0.022
AGTTGTCTCT | 0.979 ± 0.035
AGTTGTGAGT | 0.9726 ± 0.0077
AGTTGTTATT | 1.027 ± 0.0088
AGTTGTTTGT | 0.966 ± 0.016

Sequence | switch fluorescence ratio
AGTTGTTTTT | 0.983 ± 0.025
AGTTTAACTA | 1 ± 0.025
AGTTTAAGGA | 1.01 ± 0.025
AGTTTACGAA | 1.01 ± 0.0069
AGTTTACGTG | 1 ± 0.0033
AGTTTCGCGG | 0.9632 ± 0.0037
AGTTTCGCTA | 0.992 ± 0.024
AGTTTCGGGC | 0.974 ± 0.033
AGTTTGAGGA | 1.01 ± 0.014
AGTTTGATAT | 0.999 ± 0.017
AGTTTGCCAG | 0.96403 ± 0.00025
AGTTTGGGCA | 0.975 ± 0.029
AGTTTGGGGC | 0.984 ± 0.045
AGTTTGGGGG | 0.966 ± 0.029
AGTTTGGTGT | 0.997 ± 0.026
AGTTTGTGGC | 0.965 ± 0.012
AGTTTGTTGC | 1 ± 0.012
AGTTTTAACG | 0.974 ± 0.073
AGTTTTATCC | 1.006 ± 0.0052
AGTTTTATTT | 0.968 ± 0.032
AGTTTTCCTG | 0.985 ± 0.015
AGTTTTGGGG | 0.981 ± 0.043
AGTTTTTAAA | 1.027 ± 0.0039

Sequence | switch fluorescence ratio
AGTTTTTATG | 1.026 ± 0.0028
AGTTTTTCCA | 1.02 ± 0.031
AGTTTTTCGT | 1.01 ± 0.019
AGTTTTTGAG | 1 ± 0.013
AGTTTTTGCT | 0.9736 ± 0.0065
AGTTTTTGTT | 0.987 ± 0.024
AGTTTTTTCG | 0.973 ± 0.023
AGTTTTTTGG | 1.01 ± 0.033
AGTTTTTTTT | 0.997 ± 0.028
ATAAAAAAAG | 1.05 ± 0.021
ATAAAAAGGA | 1.0058 ± 0.00029
ATAAAAGAAG | 1.01 ± 0.041
ATAAACCTTG | 1.16 ± 0.031
ATAAACGTTA | 1.1 ± 0.018
ATAAAGAAGC | 1.02 ± 0.022
ATAAAGCGGC | 0.994 ± 0.047
ATAAAGGTCT | 0.984 ± 0.0053
ATAAATGACG | 1.02 ± 0.037
ATAAATGCGT | 1.002 ± 0.0031
ATAACAAGAC | 1.32 ± 0.067
ATAACAGGAT | 0.986 ± 0.033
ATAACGGGGA | 0.999 ± 0.015
ATAAGAATTG | 1.01 ± 0.06

Sequence | switch fluorescence ratio
ATAAGACTGT | 1.03 ± 0.018
ATAAGAGGAG | 0.995 ± 0.022
ATAAGCGGAG | 1 ± 0.013
ATAAGCGTGG | 0.995 ± 0.082
ATAAGGAGGT | 1.012 ± 0.0081
ATAAGGAGTT | 1.01 ± 0.045
ATAAGGCCTG | 1.03 ± 0.075
ATAAGGGGGC | 0.989 ± 0.041
ATAAGGGGGT | 0.973 ± 0.016
ATAAGGGTCC | 1.04 ± 0.066
ATAAGGTGAG | 0.998 ± 0.035
ATAAGTCTGT | 1.008 ± 0.0073
ATAAGTGGA | 0.997 ± 0.062
ATAAGTGGGA | 0.986 ± 0.076
ATAATAGGCG | 0.985 ± 0.0028
ATAATCACCT | 1.23 ± 0.019
ATAATCCCGA | 1.02 ± 0.015
ATAATCGAGT | 0.9837 ± 0.0076
ATAATGAGGT | 1.01 ± 0.042
ATAATGGCTT | 0.988 ± 0.025
ATAATGGGCA | 0.983 ± 0.064
ATAATGGTC | 1.003 ± 0.008
ATAATGTATA | 0.9835 ± 0.0028

Sequence | switch fluorescence ratio
ATAATGTGAA | 1.03 ± 0.017
ATAATGTTGT | 0.991 ± 0.031
ATAATTATCG | 0.972 ± 0.046
ATAATTGAGC | 1.04 ± 0.027
ATAATTGGG | 0.978 ± 0.097
ATAATTTAAT | 0.9986 ± 0.0074
ATAATTTGCC | 1.01 ± 0.05
ATAATTTGGG | 0.99 ± 0.017
ATACAACCTG | 1.106 ± 0.0065
ATACAAGGCA | 0.956 ± 0.053
ATACACGTTA | 1.23 ± 0.013
ATACCAGGCG | 1.24 ± 0.069
ATACCCTGGG | 1.03 ± 0.035
ATACCGGTTG | 1.02 ± 0.015
ATACCGTGAG | 1.05 ± 0.011
ATACGAAGGC | 0.985 ± 0.093
ATACGACGTG | 1.004 ± 0.0083
ATACGAGCAG | 1.067 ± 0.006
ATACGAGTTA | 1.02 ± 0.021
